B1: Myotubularin-related protein 9 (Homo sapiens), Q96QG7 (parent)
chain: MEFAELIKTPRVDNVVLHRPFYPAVEGTLCLTGHHLILSSRQDNTEELWLLHSNIDAIDKRFVGSLGTIIIKCKDFRIIQLDIPGMEECLNIASSIEALSTLDSITLMYPFFYRPMFEVIEDGWHSFLPEQEFELYSSATSEWRLSYVNKEFAVCPSYPPIVTVPKSIDDEALRKVATFRHGGRFPVLSYYHKKNGMVIMRSGQPLTGTNGRRCKEDEKLINATLRAGKRGYIIDTRSLNVAQQTRAKGGGFEQEAHYPQWRRIHKSIERYHILQESLIKLVEACNDQTHNMDRWLSKLEASNWLTHIKEILTTACLAAQCIDREGASILIHGTEGTDSTLQVTSLAQIILEPRSRTIRGFEALIEREWLQAGHPFQQRCAQSAYCNTKQKWEAPVFLLFLDCVWQILRQFPCSFEFNENFLIMLFEHAYASQFGTFLGNNESERCKLKLQQKTMSLWSWVNQPSELSKFTNPLFEANNLVIWPSVAPQSLPLWEGIFLRWNRSSKYLDEAYEEMVNIIEYNKELQAKVNILRRQLAELETEDGMQESP
partner: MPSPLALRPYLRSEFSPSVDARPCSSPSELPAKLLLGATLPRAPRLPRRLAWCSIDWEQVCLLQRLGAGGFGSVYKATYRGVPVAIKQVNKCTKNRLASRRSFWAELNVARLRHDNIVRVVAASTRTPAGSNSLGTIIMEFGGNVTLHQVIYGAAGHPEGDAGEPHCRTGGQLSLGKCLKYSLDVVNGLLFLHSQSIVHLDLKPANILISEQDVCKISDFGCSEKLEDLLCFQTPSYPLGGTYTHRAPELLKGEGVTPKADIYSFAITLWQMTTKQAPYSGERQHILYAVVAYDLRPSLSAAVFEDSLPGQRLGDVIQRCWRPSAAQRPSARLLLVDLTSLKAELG
B2: Iron-sulfur cluster co-chaperone protein HscB (Homo sapiens), Q8IWL3 (parent)
chain: MWRGRAGALLRVWGFWPTGVPRRRPLSCDAASQAGSNYPRCWNCGGPWGPGREDRFFCPQCRALQAPDPTRDYFSLMDCNRSFRVDTAKLQHRYQQLQRLVHPDFFSQRSQTEKDFSEKHSTLVNDAYKTLLAPLSRGLYLLKLHGIEIPERTDYEMDRQFLIEIMEINEKLAEAESEAAMKEIESIVKAKQKEFTDNVSSAFEQDDFEEAKEILTKMRYFSNIEEKIKLKKIPL
B3: Syntenin-2 (Homo sapiens), Q9H190 (parent)
chain: MSSLYPSLEDLKVDQAIQAQVRASPKMPALPVQATAISPPPVLYPNLAELENYMGLSLSSQEVQESLLQIPEGDSTAVSGPGPGQMVAPVTGYSLGVRRAEIKPGVREIHLCKDERGKTGLRLRKVDQGLFVQLVQANTPASLVGLRFGDQLLQIDGRDCAGWSSHKAHQVVKKASGDKIVVVVRDRPFQRTVTMHKDSMGHVGFVIKKGKIVSLVKGSSAARNGLLTNHYVCEVDGQNVIGLKDKKIMEILATAGNVVTLTIIPSVIYEHMVKKLPPVLLHHTMDHSIPDA
B4: Potassium channel subfamily K member 1 (Homo sapiens), O00180 (parent)
chain: MLQSLAGSSCVRLVERHRSAWCFGFLVLGYLLYLVFGAVVFSSVELPYEDLLRQELRKLKRRFLEEHECLSEQQLEQFLGRVLEASNYGVSVLSNASGNWNWDFTSALFFASTVLSTTGYGHTVPLSDGGKAFCIIYSVIGIPFTLLFLTAVVQRITVHVTRRPVLYFHIRWGFSKQVVAIVHAVLLGFVTVSCFFFIPAAVFSVLEDDWNFLESFYFCFISLSTIGLGDYVPGEGYNQKFRELYKIGITCYLLLGLIAMLVVLETFCELHELKKFRKMFYVKKDKDEDQVHIIEHDQLSFSSITDQAAGMKEDQKQNEPFVATQSSACVDGPANH
partner: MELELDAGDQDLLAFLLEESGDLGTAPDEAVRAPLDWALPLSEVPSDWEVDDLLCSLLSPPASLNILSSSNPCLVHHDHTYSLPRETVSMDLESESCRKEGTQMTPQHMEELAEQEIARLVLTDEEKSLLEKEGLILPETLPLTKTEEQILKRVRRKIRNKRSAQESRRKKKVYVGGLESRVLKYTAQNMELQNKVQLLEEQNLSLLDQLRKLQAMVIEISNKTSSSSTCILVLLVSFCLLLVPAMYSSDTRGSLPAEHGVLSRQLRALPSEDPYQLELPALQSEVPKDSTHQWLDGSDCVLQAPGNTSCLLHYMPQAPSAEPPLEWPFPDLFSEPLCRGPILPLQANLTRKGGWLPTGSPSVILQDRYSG
B5: Dystrobrevin beta (Homo sapiens), O60941 (parent)
chain: MIEESGNKRKTMAEKRQLFIEMRAQNFDVIRLSTYRTACKLRFVQKRCNLHLVDIWNMIEAFRDNGLNTLDHTTEISVSRLETVISSIYYQLNKRLPSTHQISVEQSISLLLNFMIAAYDSEGRGKLTVFSVKAMLATMCGGKMLDKLRYVFSQMSDSNGLMIFSKFDQFLKEVLKLPTAVFEGPSFGYTEHSVRTCFPQQRKIMLNMFLDTMMADPPPQCLVWLPLMHRLAHVENVFHPVECSYCRCESMMGFRYRCQQCHNYQLCQNCFWRGHAGGPHSNQHQMKEHSSWKSPAKKLSHAISKSLGCVPTREPPHPVFPEQPEKPLDLAHIVPPRPLTNMNDTMVSHMSSGVPTPTKRLQYSQDIPSHLADEHALIASYVARLQHCARVLDSPSRLDEEHRLIARYAARLAAEAGNVTRPPTDLSFNFDANKQQRQLIAELENKNREILQEIQRLRLEHEQASQPTPEKAQQNPTLLAELRLLRQRKDELEQRMSALQESRRELMVQLEELMKLLKEEEQKQAAQATGSPHTSPTHGGGRPMPMPVRSTSAGSTPTHCPQDSLSGVGGDVQEAFAQGTRRNLRNDLLVAADSITNTMSSLVKELHSAEEGAEEEEEKMQNGKDRG
B6: Centrosomal protein of 55 kDa (Homo sapiens), Q53EZ4 (parent)
chain: MSSRSTKDLIKSKWGSKPSNSKSETTLEKLKGEIAHLKTSVDEITSGKGKLTDKERHRLLEKIRVLEAEKEKNAYQLTEKDKEIQRLRDQLKARYSTTTLLEQLEETTREGERREQVLKALSEEKDVLKQQLSAATSRIAELESKTNTLRLSQTVAPNCFNSSINNIHEMEIQLKDALEKNQQWLVYDQQREVYVKGLLAKIFELEKKTETAAHSLPQQTKKPESEGYLQEEKQKCYNDLLASAKKDLEVERQTITQLSFELSEFRRKYEETQKEVHNLNQLLYSQRRADVQHLEDDRHKTEKIQKLREENDIARGKLEEEKKRSEELLSQVQFLYTSLLKQQEEQTRVALLEQQMQACTLDFENEKLDRQHVQHQLHVILKELRKARNQITQLESLKQLHEFAITEPLVTFQGETENREKVAASPKSPTAALNESLVECPKCNIQYPATEHRDLLVHVEYCSK
partner: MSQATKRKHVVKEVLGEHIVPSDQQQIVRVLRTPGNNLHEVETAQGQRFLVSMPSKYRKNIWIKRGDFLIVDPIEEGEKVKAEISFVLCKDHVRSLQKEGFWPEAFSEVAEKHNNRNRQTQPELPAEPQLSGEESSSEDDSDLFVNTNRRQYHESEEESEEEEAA

Variants of: B1
Conditions: with mos_human MOS

Row | effect of a mutation on the interaction | Variant
1 | with no effect | S126C

Variants of: B1
Conditions: with mos_human MOS
Remark: another data set of the same source

Row | effect of a mutation on the interaction | Variant
2 | with no effect | F127I

Variants of: B2
Conditions: with atrap_human AGTRAP

Row | effect of a mutation on the interaction | Variant
3 | disrupting interaction strength | I163M

Variants of: B3
Conditions: with zch10_human ZCCHC10, Q8TBK6
Chain of zch10_human ZCCHC10, Q8TBK6 (Q8TBK6 whole entry): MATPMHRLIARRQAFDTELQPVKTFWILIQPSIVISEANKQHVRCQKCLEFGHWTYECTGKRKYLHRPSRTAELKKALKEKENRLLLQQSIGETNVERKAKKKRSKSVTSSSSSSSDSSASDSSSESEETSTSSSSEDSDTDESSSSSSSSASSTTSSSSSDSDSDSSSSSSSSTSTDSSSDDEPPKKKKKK

Row | effect of a mutation on the interaction | Variant
4 | with no effect | V182M
5 | disrupting interaction strength | G242R

Variants of: B3
Conditions: with t23o_human TDO2, P48775
Chain of t23o_human TDO2, P48775 (P48775 whole entry, looked up): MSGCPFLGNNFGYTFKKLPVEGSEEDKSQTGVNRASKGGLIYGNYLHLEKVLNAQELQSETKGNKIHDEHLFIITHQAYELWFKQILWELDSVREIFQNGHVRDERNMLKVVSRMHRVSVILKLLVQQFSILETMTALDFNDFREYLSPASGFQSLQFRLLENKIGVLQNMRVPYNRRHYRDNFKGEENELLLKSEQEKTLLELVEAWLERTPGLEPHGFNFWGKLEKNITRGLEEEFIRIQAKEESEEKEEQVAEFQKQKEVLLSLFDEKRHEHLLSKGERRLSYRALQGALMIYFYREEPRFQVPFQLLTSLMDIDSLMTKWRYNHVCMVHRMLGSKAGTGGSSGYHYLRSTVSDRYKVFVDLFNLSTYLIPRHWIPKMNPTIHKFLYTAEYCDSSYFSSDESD

Row | effect of a mutation on the interaction | Variant
6 | with no effect | V182M
7 | disrupting interaction strength | G242R

Variants of: B3
Conditions: with lyar_human LYAR

Row | effect of a mutation on the interaction | Variant
8 | with no effect | V182M
9 | disrupting interaction strength | G242R

Variants of: B3
Conditions: with ytdc1_human YTHDC1, Q96MU7

Row | effect of a mutation on the interaction | Variant
10 | disrupting interaction strength | V182M
11 | disrupting interaction strength | G242R

Variants of: B3
Conditions: with FAM133A

Row | effect of a mutation on the interaction | Variant
12 | with no effect | V182M
13 | disrupting interaction strength | G242R

Variants of: B4
Conditions: with creb3_human CREB3, O43889

Row | effect of a mutation on the interaction | Variant
14 | with no effect | R171H

Variants of: B5
Conditions: with traf2_human TRAF2, Q12933
Chain of traf2_human TRAF2, Q12933 (Q12933 whole entry): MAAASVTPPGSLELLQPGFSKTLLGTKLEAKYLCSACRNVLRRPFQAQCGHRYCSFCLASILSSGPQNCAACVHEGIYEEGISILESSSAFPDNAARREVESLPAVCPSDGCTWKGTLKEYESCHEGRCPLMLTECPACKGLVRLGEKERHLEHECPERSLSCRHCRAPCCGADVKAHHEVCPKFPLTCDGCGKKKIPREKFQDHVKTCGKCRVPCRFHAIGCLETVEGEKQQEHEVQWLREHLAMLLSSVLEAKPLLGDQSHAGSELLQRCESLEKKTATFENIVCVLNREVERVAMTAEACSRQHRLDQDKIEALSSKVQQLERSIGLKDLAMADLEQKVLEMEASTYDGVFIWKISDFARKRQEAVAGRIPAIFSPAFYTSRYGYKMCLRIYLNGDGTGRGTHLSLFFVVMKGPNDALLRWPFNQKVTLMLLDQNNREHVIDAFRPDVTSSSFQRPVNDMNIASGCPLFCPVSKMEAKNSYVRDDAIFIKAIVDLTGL

Row | effect of a mutation on the interaction | Variant
15 | with no effect | S396G
16 | with no effect | R80H

Variants of: B5
Conditions: with lipa1_human PPFIA1, Q13136
Chain of lipa1_human PPFIA1, Q13136 (Q13136 whole entry): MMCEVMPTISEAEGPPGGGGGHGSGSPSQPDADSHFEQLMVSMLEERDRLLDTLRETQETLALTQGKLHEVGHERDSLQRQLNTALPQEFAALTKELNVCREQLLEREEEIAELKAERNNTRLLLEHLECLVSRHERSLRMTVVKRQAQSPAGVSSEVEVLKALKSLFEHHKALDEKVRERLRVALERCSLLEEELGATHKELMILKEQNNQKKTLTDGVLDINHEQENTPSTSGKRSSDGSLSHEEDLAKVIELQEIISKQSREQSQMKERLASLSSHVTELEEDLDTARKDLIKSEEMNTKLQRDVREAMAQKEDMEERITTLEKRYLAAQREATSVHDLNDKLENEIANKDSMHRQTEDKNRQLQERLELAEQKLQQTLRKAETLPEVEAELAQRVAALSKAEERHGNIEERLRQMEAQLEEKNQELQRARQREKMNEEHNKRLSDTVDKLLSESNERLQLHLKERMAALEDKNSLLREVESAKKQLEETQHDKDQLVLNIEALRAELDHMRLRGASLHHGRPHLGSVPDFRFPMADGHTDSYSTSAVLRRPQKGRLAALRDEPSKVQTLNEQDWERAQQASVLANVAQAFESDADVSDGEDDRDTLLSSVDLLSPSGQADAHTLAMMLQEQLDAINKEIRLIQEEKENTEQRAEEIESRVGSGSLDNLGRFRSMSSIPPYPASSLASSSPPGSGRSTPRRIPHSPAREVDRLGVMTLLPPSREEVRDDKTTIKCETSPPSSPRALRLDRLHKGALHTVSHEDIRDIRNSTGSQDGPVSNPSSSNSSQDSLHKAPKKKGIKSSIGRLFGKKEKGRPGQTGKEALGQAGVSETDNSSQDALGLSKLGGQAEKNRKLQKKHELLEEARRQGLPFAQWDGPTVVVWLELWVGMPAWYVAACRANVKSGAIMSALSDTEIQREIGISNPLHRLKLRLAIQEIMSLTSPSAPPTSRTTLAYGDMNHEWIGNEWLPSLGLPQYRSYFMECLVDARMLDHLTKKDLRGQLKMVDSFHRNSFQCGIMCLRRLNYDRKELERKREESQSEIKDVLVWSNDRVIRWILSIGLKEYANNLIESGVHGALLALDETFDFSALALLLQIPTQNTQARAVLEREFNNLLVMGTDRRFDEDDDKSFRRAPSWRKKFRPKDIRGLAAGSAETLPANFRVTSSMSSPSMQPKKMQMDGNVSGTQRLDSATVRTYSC

Row | effect of a mutation on the interaction | Variant
17 | with no effect | S396G

Variants of: B5
Conditions: with tera_human VCP

Row | effect of a mutation on the interaction | Variant
18 | with no effect | S396G
19 | with no effect | R80H

Variants of: B5
Conditions: with dmd_human DMD

Row | effect of a mutation on the interaction | Variant
20 | with no effect | S396G

Variants of: B5
Conditions: with cep63_human CEP63, Q96MT8
Chain of cep63_human CEP63, Q96MT8 (Q96MT8 whole entry): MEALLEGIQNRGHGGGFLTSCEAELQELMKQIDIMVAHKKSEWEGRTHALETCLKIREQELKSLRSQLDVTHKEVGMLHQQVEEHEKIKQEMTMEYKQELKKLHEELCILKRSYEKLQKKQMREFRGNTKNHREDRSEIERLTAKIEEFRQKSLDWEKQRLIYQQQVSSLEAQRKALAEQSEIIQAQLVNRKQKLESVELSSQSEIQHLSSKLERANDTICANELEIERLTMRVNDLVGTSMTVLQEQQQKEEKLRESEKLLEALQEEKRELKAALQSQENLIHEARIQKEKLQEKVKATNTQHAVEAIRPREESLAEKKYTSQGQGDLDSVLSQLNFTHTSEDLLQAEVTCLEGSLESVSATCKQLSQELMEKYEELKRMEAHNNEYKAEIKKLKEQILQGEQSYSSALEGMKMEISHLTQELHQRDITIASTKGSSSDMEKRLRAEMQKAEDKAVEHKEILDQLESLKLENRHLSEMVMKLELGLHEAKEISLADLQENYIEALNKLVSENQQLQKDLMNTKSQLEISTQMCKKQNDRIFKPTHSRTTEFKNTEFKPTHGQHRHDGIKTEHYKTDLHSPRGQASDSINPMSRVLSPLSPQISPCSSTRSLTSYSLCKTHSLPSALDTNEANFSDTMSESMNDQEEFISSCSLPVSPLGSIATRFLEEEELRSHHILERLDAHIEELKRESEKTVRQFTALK

Row | effect of a mutation on the interaction | Variant
21 | with no effect | R80H

Variants of: B5
Conditions: with abi2_human ABI2, Q9NYB9
Chain of abi2_human ABI2, Q9NYB9 (Q9NYB9 whole entry): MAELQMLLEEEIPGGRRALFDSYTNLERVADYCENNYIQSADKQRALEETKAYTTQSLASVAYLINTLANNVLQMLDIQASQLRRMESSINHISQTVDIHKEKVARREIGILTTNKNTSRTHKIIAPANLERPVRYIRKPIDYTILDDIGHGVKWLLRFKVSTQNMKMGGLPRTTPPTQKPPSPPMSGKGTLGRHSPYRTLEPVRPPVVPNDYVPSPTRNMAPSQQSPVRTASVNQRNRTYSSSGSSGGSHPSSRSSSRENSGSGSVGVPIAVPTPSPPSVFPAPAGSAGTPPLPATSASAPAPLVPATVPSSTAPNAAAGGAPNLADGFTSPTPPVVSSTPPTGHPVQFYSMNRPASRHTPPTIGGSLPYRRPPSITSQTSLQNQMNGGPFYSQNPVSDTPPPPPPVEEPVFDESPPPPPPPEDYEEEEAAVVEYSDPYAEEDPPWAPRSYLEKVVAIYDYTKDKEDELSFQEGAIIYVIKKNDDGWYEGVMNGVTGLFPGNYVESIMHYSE

Row | effect of a mutation on the interaction | Variant
22 | with no effect | R80H

Variants of: B6
Conditions: with eif1a_human EIF1AD

Row | effect of a mutation on the interaction | Variant
23 | with no effect | H57Q
24 | with no effect | R348K
25 | with no effect | C236R
